Experimental data reported in patent US20090191228A1.

What was measured:
[1] = target: dH5-0 (recombinant hemagglutinin 5 of H5N1 strain A/Vietnam/1203/04, stock as supplied by Protein Sciences) (influenza virus H5N1 strain A/Vietnam/1203/04); assay: ELISA, immobilized H5 forms, Fn F4-5 in solution; normalized to cdH5-0
[2] = target: dH5-0 (recombinant hemagglutinin 5 of H5N1 strain A/Vietnam/1203/04, stock as supplied by Protein Sciences) (influenza virus H5N1 strain A/Vietnam/1203/04)

| Substance | Normalized affinity, kD (%) [1] [%] | Bmax [2] | Kd [2] [nM] |
| --- | --- | --- | --- |
| fourth and fifth finger domain of fibronectin (Fn F4-5) (from UniProt P02751 183-275) | 103 |  |  |
| tissue type plasminogen activator (tPA) (from UniProt P00750 36-562) (enzyme) |  | 0.32 | 96 |
